Test results taken from patent US20250352579A1 (HEBEI SENLANG BIOTECHNOLOGY, published 2025).

Key:
[1] = target: T1, CD7 on cells (K562-CD7 positive cells; KG-1a-GFP-Luc; CCRF-CEM) (UniProt P09564 26-240, limits assumed); assay: cell-based or functional assay
T1 sequence (looked up): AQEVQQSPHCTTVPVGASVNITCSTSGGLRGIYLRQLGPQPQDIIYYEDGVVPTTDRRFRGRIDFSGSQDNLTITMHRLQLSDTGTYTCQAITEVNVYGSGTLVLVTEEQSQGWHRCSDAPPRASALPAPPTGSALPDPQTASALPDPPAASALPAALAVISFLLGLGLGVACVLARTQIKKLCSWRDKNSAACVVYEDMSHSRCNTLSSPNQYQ

CD7-His protein = target: T2, CD7-His protein (UniProt P09564 26-180, limits assumed); assay: SPR, CD7-His immobilised on CM5 chip by amino coupling, antibody as analyte
T2 construct: extracellular domain; also called recombinant CD7-His protein; CD7 antigen; not shown: His tag
T2 sequence (looked up): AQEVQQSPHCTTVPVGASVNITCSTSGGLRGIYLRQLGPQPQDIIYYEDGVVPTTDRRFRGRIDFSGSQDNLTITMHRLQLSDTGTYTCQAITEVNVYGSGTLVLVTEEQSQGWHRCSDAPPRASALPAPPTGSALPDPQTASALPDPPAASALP
Description: In this example, the affinities of the antibodies were measured using the SPR method (surface plasmon resonance method) by immobilizing the CD7-His protein prepared in Example 1 on the CM5 chip through amino coupling method, using the antibodies (dVHH-D, dVHH-E, VHH10, and VHH12) as analytes for the experiments to detect the affinity of each antibody to the CD7 antigen.

Binder | killing ratio, CAR-T cells on KG-1a-GFP-Luc, E:T=3:1, 4 h, luciferase [1] [%] | Kd (CD7-His protein) [nM] | koff (CD7-His protein) [s⁻¹] | kon (CD7-His protein) [M⁻¹ s⁻¹]
VHH14 single VHH CAR (other) QVQLQESGGGLVQPGGSLRLSCTASGLTLGYYAIGWFRQAPGKEREFVSTISASGGMTYYADSVKGRFTISRDNAKNTVYLEMNSLKPEDTAVYYCAAEYLGNLRHFRGDHWGKGTQVTVSSTTPAPRPPTPAPTIASQPLSLRPEACRPAAGGAVHTRGLDFACDIYIWAPLAGTCGVLLLSLVITLYCKRGRKKLLYIFKQPFMRPVQTTQEEDGCSCRFPEEEEGGCELRVKFSRSADAPAYKQGQNQLYNELNLGRREEYDVLDKRRGRDPEMGGKPRRKNPQEGLYNELQKDKMAEAYSEIGMKGERRRGKGHDGLYQGLSTATKDTYDALHMQALPPR | 60.4 |  |  | 
VHH19 single VHH CAR (other) QVQLQESGGGLVQPGGSLRLSCTASGRAFSMYVMGWFRQAPGKEREFVSTISASGGMTYYADSVKGRFTISRDNAKNTVYLEMNSLKPEDTAVYYCAAEYLGNLRHFRGDHWGKGTQVTVSSTTPAPRPPTPAPTIASQPLSLRPEACRPAAGGAVHTRGLDFACDIYIWAPLAGTCGVLLLSLVITLYCKRGRKKLLYIFKQPFMRPVQTTQEEDGCSCRFPEEEEGGCELRVKFSRSADAPAYKQGQNQLYNELNLGRREEYDVLDKRRGRDPEMGGKPRRKNPQEGLYNELQKDKMAEAYSEIGMKGERRRGKGHDGLYQGLSTATKDTYDALHMQALPPR | 61.7 |  |  | 
VHH20 single VHH CAR (other) QVQLQESGGGLVQPGGSLRLSCAASGTTLDDYAVGWFRQAPGKEREGVACISASELSTYYADSVKGRFTISRDNAKNTMYLQMNSLKPEDTAVYYCAARVGRIVDVTSTQYQYWGQGTQVTVSSTTPAPRPPTPAPTIASQPLSLRPEACRPAAGGAVHTRGLDFACDIYIWAPLAGTCGVLLLSLVITLYCKRGRKKLLYIFKQPFMRPVQTTQEEDGCSCRFPEEEEGGCELRVKFSRSADAPAYKQGQNQLYNELNLGRREEYDVLDKRRGRDPEMGGKPRRKNPQEGLYNELQKDKMAEAYSEIGMKGERRRGKGHDGLYQGLSTATKDTYDALHMQALPPR | 9.38 |  |  | 
VHH06 single VHH CAR (other) QVQLQESGGGLVQAGGSLRLSCAASGRTFSSYNMGWFRQAPGAEREFVAAISRGGGSTYYADSVKGRFTISRDNAKNTVYLQMNSLRPEDTAVYYCADSGARAYSGSYLDFGSWGQGTQVTVSSTTPAPRPPTPAPTIASQPLSLRPEACRPAAGGAVHTRGLDFACDIYIWAPLAGTCGVLLLSLVITLYCKRGRKKLLYIFKQPFMRPVQTTQEEDGCSCRFPEEEEGGCELRVKFSRSADAPAYKQGQNQLYNELNLGRREEYDVLDKRRGRDPEMGGKPRRKNPQEGLYNELQKDKMAEAYSEIGMKGERRRGKGHDGLYQGLSTATKDTYDALHMQALPPR | 62.2 |  |  | 
VHH07 single VHH CAR (other) QVQLQESGGGLVQAGGSLRLSCAASGRTFSSYVMKWFRQAPGKGREFVAGISWSGSLTSYSDSVKGRFTISRDNAKNTVYLQMNSLKPEDTAVYYCAAGEAATMSDTDYGMDYWGKGTQVTVSSTTPAPRPPTPAPTIASQPLSLRPEACRPAAGGAVHTRGLDFACDIYIWAPLAGTCGVLLLSLVITLYCKRGRKKLLYIFKQPFMRPVQTTQEEDGCSCRFPEEEEGGCELRVKFSRSADAPAYKQGQNQLYNELNLGRREEYDVLDKRRGRDPEMGGKPRRKNPQEGLYNELQKDKMAEAYSEIGMKGERRRGKGHDGLYQGLSTATKDTYDALHMQALPPR | 61.6 |  |  | 
VHH08 single VHH CAR (other) QVQLQESGGGLVQPGGSLRLSCAASGSIFSIHAMAWYRQAPGKQRELVASITVGGRTNYVDSVLGRFTISRDNAKNTVYLQMNSLKPEDTAVYYCNSLLWAGLRDSWGPGTQVTVSSTTPAPRPPTPAPTIASQPLSLRPEACRPAAGGAVHTRGLDFACDIYIWAPLAGTCGVLLLSLVITLYCKRGRKKLLYIFKQPFMRPVQTTQEEDGCSCRFPEEEEGGCELRVKFSRSADAPAYKQGQNQLYNELNLGRREEYDVLDKRRGRDPEMGGKPRRKNPQEGLYNELQKDKMAEAYSEIGMKGERRRGKGHDGLYQGLSTATKDTYDALHMQALPPR | 68.5 |  |  | 
VHH10 single VHH CAR (other) QVQLQESGGGLVQTGGSLRLSCEASERTFSSNAVGWFRQAPGKEREFVAAITWSVGTTYYADSVKGRFTISRDNAKNTVYLQMNSLKPEDTAVYYCAASGARHYSGSYLDFGSWGQGTQVTVSSTTPAPRPPTPAPTIASQPLSLRPEACRPAAGGAVHTRGLDFACDIYIWAPLAGTCGVLLLSLVITLYCKRGRKKLLYIFKQPFMRPVQTTQEEDGCSCRFPEEEEGGCELRVKFSRSADAPAYKQGQNQLYNELNLGRREEYDVLDKRRGRDPEMGGKPRRKNPQEGLYNELQKDKMAEAYSEIGMKGERRRGKGHDGLYQGLSTATKDTYDALHMQALPPR | 91.4 |  |  | 
VHH12 single VHH CAR (other) QVQLQESGGGLVQPGGSLRLSCAASGSTLDYYAIGWFRQAPGKEREGISCISNSGGMTNYADSVKGRFTISRDNAKNTVYLQMNSLKPEDTAVYYCAAGPAWSYCSGYVPAGLDKFGSWGQGTQVTVSSTTPAPRPPTPAPTIASQPLSLRPEACRPAAGGAVHTRGLDFACDIYIWAPLAGTCGVLLLSLVITLYCKRGRKKLLYIFKQPFMRPVQTTQEEDGCSCRFPEEEEGGCELRVKFSRSADAPAYKQGQNQLYNELNLGRREEYDVLDKRRGRDPEMGGKPRRKNPQEGLYNELQKDKMAEAYSEIGMKGERRRGKGHDGLYQGLSTATKDTYDALHMQALPPR | 78.2 |  |  | 
dVHH-D (other, also called VHH-10+VHH-12; double VHH antibody dVHH-D; not shown: Linker) chain (part 1 of 2): QVQLQESGGGLVQTGGSLRLSCEASERTFSSNAVGWFRQAPGKEREFVAAITWSVGTTYYADSVKGRFTISRDNAKNTVYLQMNSLKPEDTAVYYCAASGARHYSGSYLDFGSWGQGTQVTVSS chain (part 2 of 2): QVQLQESGGGLVQPGGSLRLSCAASGSTLDYYAIGWFRQAPGKEREGISCISNSGGMTNYADSVKGRFTISRDNAKNTVYLQMNSLKPEDTAVYYCAAGPAWSYCSGYVPAGLDKFGSWGQGTQVTVSS |  | 3.35 | 0.000754 | 225000
VHH12 (VHH, Variable region only; also called anti-CD7 nanobody VHH12) VHH: QVQLQESGGGLVQPGGSLRLSCAASGSTLDYYAIGWFRQAPGKEREGISCISNSGGMTNYADSVKGRFTISRDNAKNTVYLQMNSLKPEDTAVYYCAAGPAWSYCSGYVPAGLDKFGSWGQGTQVTVSS |  | 1.34 | 9.95e-05 | 74200
dVHH-E (other, also called VHH-10+VHH-10; double VHH antibody dVHH-E; not shown: Linker) chain (part 1 of 2): QVQLQESGGGLVQTGGSLRLSCEASERTFSSNAVGWFRQAPGKEREFVAAITWSVGTTYYADSVKGRFTISRDNAKNTVYLQMNSLKPEDTAVYYCAASGARHYSGSYLDFGSWGQGTQVTVSS chain (part 2 of 2): QVQLQESGGGLVQTGGSLRLSCEASERTFSSNAVGWFRQAPGKEREFVAAITWSVGTTYYADSVKGRFTISRDNAKNTVYLQMNSLKPEDTAVYYCAASGARHYSGSYLDFGSWGQGTQVTVSS |  | 4.51 | 0.000557 | 123000
VHH10 (VHH, Variable region only; also called anti-CD7 nanobody VHH10) VHH: QVQLQESGGGLVQTGGSLRLSCEASERTFSSNAVGWFRQAPGKEREFVAAITWSVGTTYYADSVKGRFTISRDNAKNTVYLQMNSLKPEDTAVYYCAASGARHYSGSYLDFGSWGQGTQVTVSS |  | 99.9 | 0.0164 | 164000
